Reference: paper PMC2575614

Target: HLA-B*2705 heavy chain with the C-terminal sv5 epitope tag (human)
Test: two-dimensional gel electrophoresis (non-reducing) and immunoblot; 24-hour stimulated KG-1.B27sv5 cell lysates resolved under non-reducing conditions, immunoblot with HC10 or pK

stoichiometry N: 2
Substance: HLA-B*2705 heavy chain with the C-terminal sv5 epitope tag (natural protein)
